This note sets out measurements from publication PMC4027191 (Nucleic Acids Research, 2014).

What is called Kd is the free concentration of one partner at which half of the binding sites on the other are occupied at equilibrium, for simple one-to-one binding.

The target in data set [1] is T1, Recombinant His-tagged RECQL1 (human, UniProt P46063 1-649).
T1 sequence (looked up): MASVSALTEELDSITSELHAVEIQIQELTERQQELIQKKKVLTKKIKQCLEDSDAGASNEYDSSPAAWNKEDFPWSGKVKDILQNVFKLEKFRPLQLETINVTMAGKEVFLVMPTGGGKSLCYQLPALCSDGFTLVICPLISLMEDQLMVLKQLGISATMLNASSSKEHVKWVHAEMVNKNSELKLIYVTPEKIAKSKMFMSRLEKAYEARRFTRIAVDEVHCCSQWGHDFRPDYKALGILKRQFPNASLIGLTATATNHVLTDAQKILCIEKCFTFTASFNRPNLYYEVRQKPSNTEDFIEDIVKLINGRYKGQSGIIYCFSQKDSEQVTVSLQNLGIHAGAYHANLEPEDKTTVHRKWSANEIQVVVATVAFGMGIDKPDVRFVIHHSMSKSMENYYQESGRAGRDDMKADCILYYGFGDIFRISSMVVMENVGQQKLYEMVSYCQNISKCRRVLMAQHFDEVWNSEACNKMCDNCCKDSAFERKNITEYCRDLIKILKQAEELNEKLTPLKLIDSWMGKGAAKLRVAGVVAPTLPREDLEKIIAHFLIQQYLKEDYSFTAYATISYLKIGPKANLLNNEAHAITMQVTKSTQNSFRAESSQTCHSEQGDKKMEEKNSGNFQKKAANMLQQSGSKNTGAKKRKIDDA
The data set can be described thus: cell-based or functional assay.

For data set [2], the target named is T2, TRF2 (Homo sapiens, UniProt Q15554 1-542). The data set can be described thus: EMSA; text gives ~100 nM, binds weakly; EMSA buffer, pH and temperature not given in the material. (Mobility shift assays separate free from complexed probe on a gel.)
Another data set has as its target RECQL1 (Homo sapiens, UniProt P46063 1-649). Kind of data set: EMSA; EMSA buffer, pH and temperature not given in the material.
For data set [3], the target named is T3, TRF1 (Homo sapiens, UniProt P54274 1-439). Kind of data set: EMSA; text gives ~50 nM; EMSA buffer, pH and temperature not given in the material.
T3 sequence (P54274 whole entry): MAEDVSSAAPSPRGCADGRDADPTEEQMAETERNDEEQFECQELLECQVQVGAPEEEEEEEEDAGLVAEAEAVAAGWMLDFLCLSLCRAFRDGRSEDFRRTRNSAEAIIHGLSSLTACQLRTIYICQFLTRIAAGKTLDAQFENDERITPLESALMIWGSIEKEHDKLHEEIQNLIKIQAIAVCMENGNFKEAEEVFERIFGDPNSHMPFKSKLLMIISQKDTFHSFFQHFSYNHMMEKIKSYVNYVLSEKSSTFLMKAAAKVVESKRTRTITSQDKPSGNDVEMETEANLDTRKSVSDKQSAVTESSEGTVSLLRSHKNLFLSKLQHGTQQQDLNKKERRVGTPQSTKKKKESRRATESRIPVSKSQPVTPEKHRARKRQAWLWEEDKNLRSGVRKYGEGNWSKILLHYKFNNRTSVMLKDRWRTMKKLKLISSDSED
Data set [4] addresses T3, TRF1. Kind of data set: EMSA; EMSA buffer, pH and temperature not given in the material.
For data set [5], the target named is T2, TRF2. The description is as above.

B1: Recombinant histidine-tagged human TRF2 (natural protein, UniProt Q15554 1-542, looked up)
chain: MAAGAGTAGPASGPGVVRDPAASQPRKRPGREGGEGARRSDTMAGGGGSSDGSGRAAGRRASRSSGRARRGRHEPGLGGPAERGAGEARLEEAVNRWVLKFYFHEALRAFRGSRYGDFRQIRDIMQALLVRPLGKEHTVSRLLRVMQCLSRIEEGENLDCSFDMEAELTPLESAINVLEMIKTEFTLTEAVVESSRKLVKEAAVIICIKNKEFEKASKILKKHMSKDPTTQKLRNDLLNIIREKNLAHPVIQNFSYETFQQKMLRFLESHLDDAEPYLLTMAKKALKSESAASSTGKEDKQPAPGPVEKPPREPARQLRNPPTTIGMMTLKAAFKTLSGAQDSEAAFAKLDQKDLVLPTQALPASPALKNKRPRKDENESSAPADGEGGSELQPKNKRMTISRLVLEEDSQSTEPSAGLNSSQEAASAPPSKPTVLNQPLPGEKNPKVPKGKWNSSNGVEEKETWVEEDELFQVQAAPDEDSTTNITKKQKWTVEESEWVKAGVQKYGEGNWAAISKNYPFVNRTAVMIKDRWRTMKRLGMN
Consider B1, for which, in data set [1], the “helicase activity of RECQL1 left on the 8-oxoguanine telomeric D-loop DL4 with TRF2 at a molar ratio of 1:4 (RECQL1:TRF2)” value was around 40%.

B2: DL1 (telomeric D-loop) (structured_DNA)
DNA 1: CACCATCCAGTTCTCTTTTGAGAACTGGATGGTGTTAGGGTTAGGGTTAGGGTTAGGGTTAACGCTC
DNA 2: TCAAGCTCGGTCTGCAGTCAGGATGATTGTGAGCGTTAACCCTAACCCTAACCCTAACCCTAATCTGCACTCGAGACTCACGTCCTGGTCACG
DNA 3: CGTGACCAGGACGTGAGTCTCGAGTGCAGACCTTTTTTTTTTTTTTTTTTTTTTTTTTTTTTTACAATCATCCTGACTGCAGACCGAGCTTGA
B2: the figures for the equilibrium dissociation constant (Kd) in the data set with TRF2 [2], with RECQL1 and with TRF1 [3] were 90 ± 12.5 nM, 10 ± 2.5 nM and 40 ± 5 nM, respectively.

B3: DL4 (telomeric D-loop with two 8-oxoG) (structured_DNA)
DNA 1: B2 DNA 1
DNA 2: B2 DNA 2
DNA 3: B2 DNA 3
modifications: 8-oxo-dG at positions 39 and 57 of strand 1 (written as G)
As to B3, the results for the dissociation constant (Kd) in the data set with TRF1 [4], with RECQL1 and with TRF2 [5] were 50 ± 10 nM, 12.5 ± 5 nM and 125 ± 10 nM, respectively.
